What follows are substances tested against β-Klotho overexpressed in recombinant human 293T kidney cells (assay: cell-based or functional assay).

EC50 (nM), ELK luciferase assay | Efficacy, ELK luciferase assay | Substance
167 nM | 63.9% | hFc-(L15)-hFGF21(1-178, L98R, P171G) (Fc fusion)
617 nM | 77.1% | hFc-(L15)-hFGF21(L98R, P171G, A180P) (Fc fusion)
3.46 nM | 72.6% | hFc-(L15)-hFGF21(L98R, P171G, S181L) (Fc fusion)
2.66 nM | 73.5% | hFc-(L15)-hFGF21(L98R, P171G, S181A) (Fc fusion)
130 nM | 87.9% | hFc-(L15)-hFGF21(L98R, P171G, S181K) (Fc fusion)

More lines, now with the values behind:

Substance | EC50 (nM), ELK luciferase assay | Efficacy, ELK luciferase assay
hFc-(L15)-hFGF21(L98R, P171G, Y179G) (Fc fusion) | 61 nM | 82.6%
hFc-(L15)-hFGF21(L98R, P171G, S181P, P182) (Fc fusion) | 272 nM | 69.9%
hFc-(L15)-hFGF21(L98R, P171G, Y179P) (Fc fusion) | 428 nM | 44.4%
hFc-(L15)-hFGF21(L98R, P171G, GGGGG182-6) (Fc fusion) | 4310 nM | 99.7%
hFc-(L15)-hFGF21(L98R, P171G, 1-179) (Fc fusion) | 7.8 nM | 77.4%
MKEDD-hFGF21-(L15)-hFc (Fc fusion) | 834 nM | 83.1%
hFc-(L15)-hFGF21(L98R, P171G, S181T) (Fc fusion) | 3.07 nM | 77.6%
hFc-(L15)-hFGF21(L98R, P171G, S181P) (Fc fusion) | 33.8 nM | 79.5%
hFc-(L15)-hFGF21(L98R, P171G, S181G) (Fc fusion) | 3.43 nM | 77.3%
